Assay results: patent publication US12331106B2, “Anti-angiopoietin-2 antibodies that induce Tie2 activation” (Institute for Basic Science, priority 2018, dated 2025)

System: LLC (Lewis Lung Carcinoma) tumor
Assay: Tumor growth inhibition in LLC subcutaneous model
Type: in vivo, C57BL/6 mice
Details: LLC s.c.; antibody 10 mg/kg i.p. every 2-3 days; Cpt 3 mg/kg i.p. once
Protocol: 2C8H11 anti-Ang2 antibody was tested for its ability to inhibit tumor growth in LLC (Lewis Lung Carcinoma) cell line tumor model. Specifically, LLC cell line (ATCC) was cultured in DMEM (GIBCO™) supplemented with 10% FBS (GIBCO™). LLC cells (1×10^6 in 100 μl of PBS) were subcutaneously injected into 6˜8-week-old C57BL/6 mice (Jackson Laboratory) which were anesthetized with a mixture of Ketamine and Xylazine. When the volume of the tumors reached 50˜100 mm^3, the mice were intraperitoneally administered with 10 mg/kg of 2C8H11 antibody every 2˜3 days. Cisplatin (Cpt) was injected intraperitoneally once at a dose of 3 mg/kg in both monotherapy and combination therapy groups. The changes in tumor volume was tracked over the following days. Tumor volume (V) was measured using the formula: V=(width^2×length)/2 V=(width^2×length)/2
The experiment was performed in 4 groups: Fc (control group), Fc+Cpt group, 2C8H11 group, and 2C8H11+Cpt group. […] Meanwhile, combined treatment with 2C8H11 and Cpt delayed tumor growth by 47% compared with Fc.

B1: 2C8H11: humanized anti-Ang2 human IgG1 antibody from mouse 2C8; VH SEQ ID NO: 55, VL SEQ ID NO: 56 (antibody, V domains shown)
VH: QVQLVQSGAEVKKPGASVKVSCKASGYTFTSYWMHWVRQAPGQGLEWMGMIDPSDSETRLNQKFKDRVTMTRDTSTSTVYMELSSLRSEDTAVYYCARRFYYGSDWYFDVWGQGTLVTVSS
VL: DIQLTQSPSFLSASVGDRVTITCKASQDVGTAVAWYQQKPGKAPKLLIYWASTRHTGVPSRFSGSGSGTEFTLTISSLQPEDFATYYCQQYSSYPLTFGQGTKVEIK
modifications: human IgG1 constant regions; VH; VL
tumor growth inhibition compared with Fc: 29%
